T1: Tif4631p (1–402) (Saccharomyces cerevisiae, UniProt P39935 1-402)
T1 construct: Cloned 'following equivalent methods' to the Pub1p constructs (same modified pET28 vector); Unlabelled or 15N-labelled according to the NMR experiment; source: E. coli BL21(DE3), purified (HisTrap, TEV digestion, second nickel column, anion exchange MonoQ); not shown: thioredoxin A, N-terminal, cleaved; His6, internal, cleaved
T1 sequence (looked up): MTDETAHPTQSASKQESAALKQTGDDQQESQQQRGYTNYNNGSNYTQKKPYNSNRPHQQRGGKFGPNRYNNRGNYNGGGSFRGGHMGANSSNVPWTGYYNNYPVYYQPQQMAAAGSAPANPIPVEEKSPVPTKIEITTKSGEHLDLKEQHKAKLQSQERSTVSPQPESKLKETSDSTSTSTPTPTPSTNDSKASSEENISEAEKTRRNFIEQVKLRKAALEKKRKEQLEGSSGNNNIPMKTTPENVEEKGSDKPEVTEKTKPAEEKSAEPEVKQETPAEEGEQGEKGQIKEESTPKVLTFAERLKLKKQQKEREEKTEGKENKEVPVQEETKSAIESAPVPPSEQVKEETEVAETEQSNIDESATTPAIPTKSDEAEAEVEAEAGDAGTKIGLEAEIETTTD

T2: Tif4631p (1–184) (Saccharomyces cerevisiae, UniProt P39935 1-184)
T2 construct: Tif4631p (yeast eIF4G1), Saccharomyces cerevisiae, residues 1-184; Cloned 'following equivalent methods' to the Pub1p constructs; source: E. coli BL21(DE3), purified (HisTrap, TEV digestion, second nickel column, anion exchange MonoQ); not shown: thioredoxin A, N-terminal, cleaved; His6, internal, cleaved
T2 sequence (looked up): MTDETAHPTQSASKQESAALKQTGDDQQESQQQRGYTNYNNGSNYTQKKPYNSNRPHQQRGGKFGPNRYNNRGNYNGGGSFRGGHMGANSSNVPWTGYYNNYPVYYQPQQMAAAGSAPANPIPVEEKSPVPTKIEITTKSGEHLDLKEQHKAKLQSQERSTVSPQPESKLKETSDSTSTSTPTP

T3: Pub1p R12 (RRM1-RRM2) (Saccharomyces cerevisiae, UniProt P32588 32-242)
T3 sequence: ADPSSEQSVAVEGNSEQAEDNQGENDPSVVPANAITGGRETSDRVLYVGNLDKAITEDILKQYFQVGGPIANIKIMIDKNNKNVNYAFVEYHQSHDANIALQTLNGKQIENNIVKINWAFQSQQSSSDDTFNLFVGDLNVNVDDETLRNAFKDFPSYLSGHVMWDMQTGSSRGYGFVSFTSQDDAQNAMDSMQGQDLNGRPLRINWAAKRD

T4: Pub1p R3 (RRM3, TRRM) (Saccharomyces cerevisiae, UniProt P32588 315-414)
T4 sequence: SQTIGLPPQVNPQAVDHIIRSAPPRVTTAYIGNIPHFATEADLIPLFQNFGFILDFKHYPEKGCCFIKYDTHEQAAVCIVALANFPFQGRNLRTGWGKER


Assays:
[1] = target: T1, Tif4631p (1–402); experiment: NMR titration; 1H-15N HSQC of 100 µM 15N-labelled Tif4631p (1–402) with 120 µM unlabelled Pub1p R3 added; 25 mM potassium phosphate pH 7.0, 25 mM NaCl, 0.1 mM DTT, 25°C; conditions: both partners purified
[2] = target: T2, Tif4631p (1–184); experiment: cross-linking; glutaraldehyde by vapour diffusion, 16 h at 4°C; Pub1p proteins 10 µM, Tif4631p (1–402) 1 µM, Tif4631p (1–184) 4 µM; 25 mM potassium phosphate, 150 mM NaCl, 0.1 mM DTT, pH 8.0; 15% SDS-PAGE, silver stain; conditions: both partners purified
[3] = target: T3, Pub1p R12 (RRM1-RRM2); experiment: NMR titration; slow exchange; 25 mM potassium phosphate pH 7.0 (6.5-7.0 in general NMR methods), 25 mM NaCl, 0.5 mM DTT, 25 C; 100 µM protein, RNA up to 400 µM (R3) or 1:1 (R12); conditions: protein: recombinant; tags: TrxA-6xHis tag removed by TEV; single strand
[4] = target: T4, Pub1p R3 (RRM3, TRRM); experiment: NMR titration; 2:1 protein:RNA; 25 mM potassium phosphate pH 7.0 (6.5-7.0 in general NMR methods), 25 mM NaCl, 0.5 mM DTT, 25 C; 100 µM protein, RNA up to 400 µM (R3) or 1:1 (R12); conditions: protein: recombinant; tags: TrxA-6xHis tag removed by TEV; chain copies: 2; single strand
[5] = target: T3, Pub1p R12 (RRM1-RRM2); experiment: NMR titration; intermediate exchange; 25 mM potassium phosphate pH 7.0 (6.5-7.0 in general NMR methods), 25 mM NaCl, 0.5 mM DTT, 25 C; 100 µM protein, RNA up to 400 µM (R3) or 1:1 (R12); conditions: protein: recombinant; tags: TrxA-6xHis tag removed by TEV; single strand
[6] = target: T4, Pub1p R3 (RRM3, TRRM); experiment: NMR titration; 1:1 protein:RNA; Kd n.d.; 25 mM potassium phosphate pH 7.0 (6.5-7.0 in general NMR methods), 25 mM NaCl, 0.5 mM DTT, 25 C; 100 µM protein, RNA up to 400 µM (R3) or 1:1 (R12); conditions: protein: recombinant; tags: TrxA-6xHis tag removed by TEV; chain copies: 2; single strand
[7] = target: T4, Pub1p R3 (RRM3, TRRM); experiment: NMR titration; 1:1 protein:RNA; 25 mM potassium phosphate pH 7.0 (6.5-7.0 in general NMR methods), 25 mM NaCl, 0.5 mM DTT, 25 C; 100 µM protein, RNA up to 400 µM (R3) or 1:1 (R12); conditions: protein: recombinant; tags: TrxA-6xHis tag removed by TEV; chain copies: 2; single strand

Row | Binder | Kd [4] [µM] | binding result [6] | other results
1 | Pub1p R3 (RRM3 domain, residues 315–414) (domain or fragment, Saccharomyces cerevisiae, UniProt P32588 315-414, looked up, also called Pub1p TRRM; Pub1p RRM3; source: E. coli BL21(DE3), purified (HisTrap, TEV digestion, second nickel column, cation exchange); not shown: thioredoxin A, N-terminal, cleaved; His6, internal, cleaved) SQTIGLPPQVNPQAVDHIIRSAPPRVTTAYIGNIPHFATEADLIPLFQNFGFILDFKHYPEKGCCFIKYDTHEQAAVCIVALANFPFQGRNLRTGWGKER | – | – | binding result [1]: binds; binding result [2]: binds
2 | UUUUUUUUUUUUUU (ssRNA) [U14] | 2.16 | – | Kd [3]: < 0.25 µM
3 | UAUAUAUAUAUAUA (ssRNA) [(UA)7] | < 1 | – | Kd [5]: 0.894 µM
4 | UAUAUAUAUAUA (ssRNA) [(UA)6] | – | binds | –
5 | AAAAAAAAAAAAAA (ssRNA) [A14] | 78.5 | – | –
6 | CUCUCUCUCUCU (ssRNA) [(CU)6] | – | – | Kd [7]: 18.8 µM
7 | AGAGAGAG (ssRNA) [(AG)4] | – | – | Kd [7]: 88.3 µM
8 | UUUUUUUUUUUU (ssRNA) [U12] | – | binds | –
9 | UUUUUUUUUU (ssRNA) [U10] | – | binds | –
